Assay in all cases: ubiquitin-AMC enzyme inhibition
One assay addresses T1, USP5 (UniProt P45974 1-858).
T1 chain: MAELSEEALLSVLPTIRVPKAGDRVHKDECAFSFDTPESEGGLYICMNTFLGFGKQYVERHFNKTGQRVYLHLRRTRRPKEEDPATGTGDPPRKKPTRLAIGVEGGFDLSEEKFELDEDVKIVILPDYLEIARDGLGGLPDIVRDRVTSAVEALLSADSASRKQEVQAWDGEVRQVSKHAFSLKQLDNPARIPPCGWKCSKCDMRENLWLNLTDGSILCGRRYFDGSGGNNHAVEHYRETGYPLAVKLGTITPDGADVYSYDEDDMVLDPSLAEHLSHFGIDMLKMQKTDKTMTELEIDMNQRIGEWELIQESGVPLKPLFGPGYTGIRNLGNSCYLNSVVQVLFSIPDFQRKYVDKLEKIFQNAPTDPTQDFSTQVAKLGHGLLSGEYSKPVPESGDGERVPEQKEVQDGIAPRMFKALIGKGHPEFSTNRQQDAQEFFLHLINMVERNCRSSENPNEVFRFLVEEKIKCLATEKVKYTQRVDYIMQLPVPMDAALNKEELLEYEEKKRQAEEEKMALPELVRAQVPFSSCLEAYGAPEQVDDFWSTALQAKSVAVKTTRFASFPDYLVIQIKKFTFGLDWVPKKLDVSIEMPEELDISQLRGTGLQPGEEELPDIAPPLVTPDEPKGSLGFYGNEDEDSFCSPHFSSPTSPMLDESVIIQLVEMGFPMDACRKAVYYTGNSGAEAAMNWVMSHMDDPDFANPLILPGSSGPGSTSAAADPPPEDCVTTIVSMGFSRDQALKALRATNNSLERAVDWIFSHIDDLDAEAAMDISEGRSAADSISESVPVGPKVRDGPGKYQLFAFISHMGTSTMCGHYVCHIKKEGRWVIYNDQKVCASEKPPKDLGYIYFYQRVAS

For the next assay, the target named is T2, UCHL3 (UniProt P15374 1-230).
T2 chain: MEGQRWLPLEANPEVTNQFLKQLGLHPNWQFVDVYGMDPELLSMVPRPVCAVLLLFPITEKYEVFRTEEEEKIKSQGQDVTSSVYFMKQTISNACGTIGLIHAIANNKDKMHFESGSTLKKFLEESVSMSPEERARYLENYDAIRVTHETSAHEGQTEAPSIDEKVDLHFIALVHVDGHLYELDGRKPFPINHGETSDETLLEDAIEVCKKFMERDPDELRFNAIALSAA

For assay [1], the target named is T3, USP30 (active enzyme in the ubiquitin-AMC assay) (UniProt Q70CQ3 57-517).
T3 chain: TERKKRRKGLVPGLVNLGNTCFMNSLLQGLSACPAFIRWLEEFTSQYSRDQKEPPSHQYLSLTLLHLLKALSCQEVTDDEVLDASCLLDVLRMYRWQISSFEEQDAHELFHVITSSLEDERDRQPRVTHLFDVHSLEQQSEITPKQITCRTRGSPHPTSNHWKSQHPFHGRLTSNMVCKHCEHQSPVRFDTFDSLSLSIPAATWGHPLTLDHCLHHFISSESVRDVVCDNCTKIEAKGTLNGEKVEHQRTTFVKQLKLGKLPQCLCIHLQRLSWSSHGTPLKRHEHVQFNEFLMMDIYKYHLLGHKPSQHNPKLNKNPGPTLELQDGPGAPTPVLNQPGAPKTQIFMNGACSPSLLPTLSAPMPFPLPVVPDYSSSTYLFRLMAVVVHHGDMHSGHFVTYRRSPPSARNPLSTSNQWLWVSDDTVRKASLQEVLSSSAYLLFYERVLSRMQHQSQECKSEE

For the next assay, the target named is T4, USP2 (UniProt O75604 259-605).
T4 chain: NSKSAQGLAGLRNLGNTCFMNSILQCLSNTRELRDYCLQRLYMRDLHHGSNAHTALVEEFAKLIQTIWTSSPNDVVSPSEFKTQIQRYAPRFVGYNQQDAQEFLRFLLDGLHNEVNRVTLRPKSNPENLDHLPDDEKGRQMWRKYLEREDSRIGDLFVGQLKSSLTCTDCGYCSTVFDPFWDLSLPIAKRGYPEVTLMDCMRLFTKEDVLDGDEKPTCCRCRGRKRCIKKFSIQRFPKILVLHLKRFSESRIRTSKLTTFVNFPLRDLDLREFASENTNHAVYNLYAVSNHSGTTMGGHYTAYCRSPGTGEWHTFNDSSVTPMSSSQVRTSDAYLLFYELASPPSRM

The next assay addresses USP7.

The results in this text go back to US20150344888A1 (published 2015).

Consider VSRCYIFWNEMFCDVE [peptide USP30-8], for which the IC50 with USP5 is 42.9 µM; with UCHL3, 194 µM; in assay [1] it was 121 µM; with USP2 it was around 200 µM.

Molecule VSRCYIFWNEMFCDVE [pep8] showed an IC50 in the assay with USP7 of 31.7 µM.

Broadly, the IC50 is the concentration that gives 50% inhibition. A high value points to a need for much substance.
